Here are results for 1 molecule from patent publication US20210355235A1, “Compositions and Methods For Treating Cancer with Anti-Renalase antibodies and Anti-PD1 antibodies” (YALE UNIVERSITY, priority 2017, published 2021).

For test [1], the system named is melanoma cell lines. The test is described as follows: melanoma cells in culture, viability / growth. Format: cell-based, human. As for the experimental part: Total cell number and percentage of live cells were assessed by trypan blue exclusion, and cells were counted using a BioRad TC10 automated cell counter. For additional studies, cell viability was determined using WST-1 reagent (Roche Diagnostics, Indianapolis, Ind., USA) according to the manufacturers' instruction. Absorbances were read using a microplate reader (Power Waves XS, BioTek Instruments, Winooski, Vt., USA).

The subject of test [2] is BxPC3 xenografted tumors. The test is described as follows: BxPC3 pancreatic xenograft in athymic nude mice. Format: in vivo, mouse. The protocol:
Immunohistochemistry was performed as described previously (Guo et al., 2012 Cancer Science. 103(8):1474-80). Briefly tumor tissues were formalin-fixed, paraffin-embedded and cut into 5-m sections on glass slides. The slides were de-paraffinized and hydrated, followed by antigen retrieval in a pressure cooker containing 10 mM sodium citrate, pH6 buffer. The sections were blocked in 3% hydrogen peroxide for 30 min and 2.5% normal horse serum in PBS/0.1% Tween20 for 1 h followed by incubation with primary antibody and isotype control IgG overnight at 4° C. The following antibodies were used in this study: m28-RNLS at 500 ng/ml; goat polyclonal anti-RNLS at 250 ng/ml (Abcam, AB31291); rabbit monoclonal anti Ki67 (Vector Lab, VP-RM04, 1:100); rabbit monoclonal anti p21 and phspho-Tyr^705-Stat3 (Cell Signaling Technologies, #2947, 1:100 and #9145, 1:400, respectively). ImmPRESS peroxidase-anti-rabbit IgG (Vector Laboratories, Burlingame, Calif., USA) was used to detect primary antibodies. The color was developed using a Vector DAB substrate kit and counterstained with hematoxylin (Vector Laboratories). Slides were observed and photographed using an Olympus BX41 microscope and camera (Olympus America Inc, Center Valley, Pa., USA).
Female athymic, 18-20 g nude mice (nu/nu) were obtained from Charles River (Willimantic, Conn.) and housed in microisolator cages, with autoclaved bedding in a specific pathogen-free facility, with a 12-h light/dark cycle.
Xenograft tumors were established by subcutaneous injection of BxPC3 cells (2×10^6 in 100 μl of PBS, pH 7.6). When the tumors reached a volume of 50-100 mm^3, the mice were divided a control group (n=14 treated with rabbit IgG, 40 μg by intraperitoneal injection (IP)), and an experimental group (n=14) that received m28-RNLS (40 μg IP, every 3 days). Tumor size was measured with digital calipers and volume was calculated according to the formula (length×width^2)×π/2. In another group of animals (n=6 each) sh-RNLS or sh-Control Panc1 cells (2×10^6 in 100 μl of PBS, pH 7.6) were injected subcutaneously. These animals received no further treatments, and tumor size and volume were measured for up to 30 days.
At the end of the study, the mice were sacrificed, the tumors were excised and immediately snap-frozen in liquid nitrogen and stored at −80° C. Apoptosis was examined using the TUNEL assay (Roche in situ Apoptosis Detection System), according to the manufacturer's instructions. Sections were examined by light microscopy and the apoptosis index was determined by counting ≥1000 cells in 5 randomly selected high-power fields (×200 magnification).

Test [3] relates to YUMM mouse melanoma tumor. The test is described as follows: anti-PD1 resistant YUMM melanoma engrafted into immunocompetent C57B6 mice. Format: in vivo. The following applies: qPCR. As for the experimental part:
Experiments were conducted to assess the synergism between anti-RNLS antibody and anti-PD1 antibody against a tumor cell line that is resistant to anti-PD1 agents (i.e., YUMM) (FIG. 35). The anti-PD1 resistant mouse melanoma cell line (YUMM) was engrafted into immunocompetent C57B6 mice. After the engrafted YUMM tumor volume reached about 100 mm^3 (i.e., day 0), treatments were administered on days 0, 7, 9, and 12, as indicated by the arrows on […].
Experiments were conducted to measure PD1 and PD-L1 mRNA expression by qPCR in unfractioned tumor mass after treatment with anti-RNLS antibody (m28) alone, anti-PD1 antibody alone, and the combination of anti-RNLS antibody (m28) and anti-PD1 antibody (FIG. 36).
Experiments were conducted to measure CD8a mRNA expression by qPCR in unfractioned tumor mass after treatment with anti-RNLS antibody (m28) alone, anti-PD1 antibody alone, and the combination of anti-RNLS antibody (m28) and anti-PD1 antibody.
(In general: In qPCR the cycle at which signal appears reflects the starting amount.)

The test system of test [4] is PDACC (pancreatic ductal adenocarcinoma cells). Description: PDACC viability with anti-RNLS antibodies, WST-1. Format: cell-based, human. The conditions noted are these: 72 hrs. As for the experimental part:
FIG. 25, comprising FIGS. 25A through 25E, is a series of charts and images showing that inhibition of RNLS signaling is cytotoxic to cancer cells in vitro and in vivo. FIG. 25A is a chart showing relative cell viability following transient transfection of Panc1 cells using a RNLS-specific siRNA, or a non-specific control siRNA, and cell viability assayed 96 h later using the WST-1 reagent; n=6, ** indicates p<0.001. FIG. 25B is a chart showing relative cell viability when cells were treated with indicated antibodies for 72 hrs and cell viability determined using WST-1; m28-RNLS and m37-RNLS: monoclonal antibodies raised against RNLS peptide RP220, ab31291: Abcam polyclonal antibody raised against a partial sequence of RP-220; n=6, * indicates p<0.005. […] FIG. 25D is a chart showing tumor volume increase after athymic nude mice received subcutaneous injection of Panc1 cells transduced with RNLS shRNA (sh-RNLS) or control (sh-Control); tumor volume measured every […] for up to 30 days, n=6 each; * indicates p<0.05. FIG. 25E is chart showing tumor volume increase after nude mice were xenografted with BxPC3; tumor volume measured prior to treatment every 3-4 days with 2 mg/kg of either rabbit IgG as a negative control or with m28-RNLS, n=10, * indicates p<0.05.
Cell viability was assessed by trypan blue exclusion, and cells were counted using a BioRad TC10 automated counter.

Entries after “also recorded” stand apart in the source; their conditions may differ. Like-named read-outs stand apart in the source and are kept apart here.

B1: m28-RNLS: rabbit anti-renalase monoclonal raised against RNLS peptide RP-220; heavy chain SEQ ID NO:9, light chain SEQ ID NO:10 (antibody)
heavy: METGLRWLLLVAVLKGVQCQSVEESGGRLVTPGTPLTLTCTVSGFSLSSFAVGWVRQAPGKGLEYIGIISSVGITRYASWAAGRFTISKTSTTVDLKITSPTTEDTATYFCARYGYSGDVNRLDLWGQGTLVTVSSGQPKAPSVFPLAPCCGDTPSSTVTLGCLVKGYLPEPVTVTWNSGTLTNGVRTFPSVRQSSGLYSLSSVVSVTSSSQPVTCNVAHPATNTKVDKTVAPSTCSKPTCPPPELLGGPSVFIFPPKPKDTLMISRTPEVTCVVVDVSQDDPEVQFTWYINNEQVRTARPPLREQQFNSTIRVVSTLPIAHQDWLRGKEFKCKVHNKALPAPIEKTISKARGQPLEPKVYTMGPPREELSSRSVSLTCMINGFYPSDISVEWEKNGKAEDNYKTTPAVLDSDGSYFLYSKLSVPTSEWQRGDVFTCSVMHEALHNHYTQKSISRSPGK
light: MDTRAPTQLLGLLLLWLPGATFAQVLTQTASPVSAAVGGTVTINCQASQSVYDNNNLAWYQQKPGQPPKQLIYGASTLASGVSSRFKGSGSGTQFTLTISGVQCDDAATYYCLGEFSCSSADCFAFGGGTEVVVKGDPVAPTVLIFPPSADLVATGTVTIVCVANKYFPDVTVTWEVDGTTQTTGIENSKTPQNSADCTYNLSSTLTLTSTQYNSHKEYTCKVTQGTTSVVQSFNRGDC
modifications: 1D-28-4 full length heavy chain amino acid; 1D-28-4 full length light chain amino acid
Consider B1, for which, in test [1], the “melanoma cell viability / growth in culture” value is reported as “decreased the viability of all (total of 5) melanoma cell lines tested”. For the same molecule, the “melanoma cell viability / growth in culture” value in test [1] (listed as 1D-28-4) was “inhibits melanoma cells in culture”. Also, in test [2] (mouse, in vivo), the “decrease in Ki67 expression vs IgG” value was 2.5 fold, the “increase in apoptosis (TUNEL staining) vs IgG” value is about 2 fold and the “increase in p21 expression vs IgG” value is about 4 fold. Besides, the p21 positive cells in test [2] (n=14) is 178.1 ± 11.4 positive cells/high power field. The “TUNEL positive cells (apoptosis)” value in test [2] (n=14, IgG 14.8±2.3) is given as 28.4±3.3 positive cells/high power field. Moreover, in test [2] (n=14, IgG 340.2±11.9), the Ki67 positive cells was 137.1±14.9 positive cells/high power field. For the same molecule, in test [2] (vs rabbit IgG, up to 3 weeks, 40 μg IP every 3 days), the tumor volume result was “inhibited PDAC growth; also recorded: significant decrease in tumor volume”. In addition, in test [3], the “CD8a mRNA expression in unfractioned tumor mass (cytotoxic T cells)” value is reported as “activates cytotoxic T cells”. The “PDACC growth / viability” value in test [4] is “inhibitory effects”.
